Data from PMC8244865, “Recruitment of phospholipase Cγ1 to the non-structural membrane protein pK15 of Kaposi Sarcoma-associated herpesvirus promotes its Src-dependent phosphorylation” (PLoS Pathogens, 2021).

Legend:
PLCγ1 cSH2 domain = assay: AlphaLISA, isolated PLCγ1 cSH2; assay type: binding; conditions: phosphorylated, 300 nM each protein, domain tested individually
Procedure: Fig 4 The PLCγ1 cSH2 domain is required for the binding of PLCγ1 to phosphorylated pK15 in vitro and may serve as a dominant-negative inhibitor. GST-fused pK15 cytoplasmic tail WT (A), or its truncated mutant N2 [51] (B), were phosphorylated in vitro by 2xStrep-Src and an AlphaLISA was performed with the indicated His-tagged fragments of PLCγ1. Mean and standard deviation from at least two independent experiments with two technical replicates each are depicted. GST fusion proteins of the N1 (C) or N2 (D) truncation mutants of the pK15 cytoplasmic tail were phosphorylated in vitro by 2xStrep-Src and their interaction with recombinant purified PLCγ1 tSH2 (tandem SH2) or SA (γ-specific array) domains was measured by AlphaLISA in the presence of increasing concentrations (300 nM, 600 nM, 900 nM, 1200 nM) of the purified PLCγ1 cSH2. […] After 48h lysates were collected and analysed by Western blot using an antibody to PLCγ1 pY^783 to assess the level of PLCγ1 phosphorylation. (F) The intensities of the pPLCγ1 bands shown in panel E were quantified by densitometry, normalized to the values obtained with the empty vector (EV) in the presence of pK15, and plotted as relative values. […]
His-tagged PLCγ1 (SA, tSH2 or the isolated SH2 domains) was incubated at room temperature with GST-tagged K15P or its mutants for 1 hour. […] Emission at 615 nm was detected on BioTek Synergy 2 plate reader.

PLCγ1 SA R586L+R694L = assay: GST-pulldown, PLCγ1 SA double mutant; assay type: binding; conditions: phosphorylated; HEK 293T
Procedure: Fig 3 Contribution of individual PLCγ1 SH2 domains to the interaction with phosphorylated pK15. The pK15 CT fused to GST, its Y^481F mutant, or GST alone were bound to glutathione beads, phosphorylated in vitro (+) or left unphosphorylated (-), and a GST pulldown was performed 32h after transfection into HEK-293T cells of expression vectors for S-tagged full-length PLCγ1 (FL) (A) or PLCγ1 SA (B) containing the indicated mutations. (C) pK15 CT WT, its Y^481F mutant or GST were bound to glutathione beads, phosphorylated in vitro (+) or left unphosphorylated (-), and used for a GST pulldown assay 32h after transfecting HEK 293T cells with expression vectors for S-tagged individual PLCγ1 nSH2 or cSH2 domains. […]
HEK293T cells were washed once with cold PBS 30 hours after transfection, lysed in IP buffer (50 mM Tris pH7.6, 60 mM NaCl, 6.25 mM EDTA, 1% (v/v) glycerol, 0.04% (v/v) NP-40) on ice for 30 minutes, sonicated shortly and cleared by centrifugation for 10 minutes at 20.000g, 4°C. […] Beads were then washed 5 times in 500 μl IP buffer (or for purified proteins IP buffer with 200 mM NaCl), suspended in 10 μl of 5x Laemmli sample buffer (60 mM Tris pH6.8, 24% (v/v) glycerol, 2% (v/v) SDS, 5% (v/v) β-mercaptoethanol, 0.01% Bromphenol Blue) and analysed by western blot.

B1: pK15 CT^WT: pK15 cytoplasmic tail fused to GST at its N-terminal end, phosphorylated in vitro by Src (protein)
chain: SQLLNEVELQEVNRDPPNVFGYASILVSGAEESREPSPQPDQSGMSILRVDGGSAFRIDTAQAATQPTDDLYEEVLFPRN
modifications: tyrosine-phosphorylated in vitro by Src; sites not stated for this construct; left off: GST, N-terminal, kept
- interaction (AlphaLISA) (PLCγ1 cSH2 domain): only the PLCγ1 cSH2 domain (and not the nSH2 domain) interacted
- interaction (AlphaLISA) (PLCγ1 cSH2 domain; listed as pK15 CT^N2): did interact with the tSH2 and cSH2 domains
- binding of double mutant (GST-pulldown) (PLCγ1 SA R586L+R694L): completely eliminated the binding
